One assay has as its target 8.3 TcR. In words: tetramer staining, flow cytometry on CD8+ T cells of 8.3 TcR-transgenic NOD mice.
For assay [1], the target named is human NKG2D (human) (UniProt P26718). The assay is described as follows: cell-based or functional assay.
Assay [2] has the same target. The assay is described as follows: flow cytometry on NKL cells, biotin mAb on ice 30 min, then 16 h at 37° C., APC-streptavidin (antibody left on the surface after culture). (In general: In flow cytometry, cells or beads pass a laser one at a time.)
Assay [3] has the same target. The assay is described as follows: flow cytometry on NKL cells, biotin mAb on ice 30 min, APC-streptavidin, before culture (0 h).

Some results are limits rather than exact numbers.

Chain of UniProt P26718 (P26718 whole entry T72A): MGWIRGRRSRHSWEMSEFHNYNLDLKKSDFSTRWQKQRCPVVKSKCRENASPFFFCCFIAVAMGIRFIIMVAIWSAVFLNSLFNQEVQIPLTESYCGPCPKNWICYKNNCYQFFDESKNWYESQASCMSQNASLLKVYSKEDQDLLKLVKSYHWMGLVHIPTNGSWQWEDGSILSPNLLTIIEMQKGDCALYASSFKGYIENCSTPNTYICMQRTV

Regarding “NRP-V7/H-2K^d tetramer (from UniProt P01902 22-305) (peptide-MHC)”, the percent of CD8+ T cells tetramer positive with 8.3 TcR is greater than 90%.
In the assay with human NKG2D (human) [1], “mouse anti-human NKG2D mAb (R&D Systems clone 149810) (antibody)” returned a decrease in expression of NKG2D on the cell surface of 67%. Moreover, the mean fluorescence intensity (arbitrary units) (arbitrary units) came out at 61 with human NKG2D (human) [2] and 186 in the assay with human NKG2D (human) [3].

The values are drawn from patent US20080260727A1.
